Legend:
Type in all cases: binding
DNA1-Bi = assay: Hybridoma antibody specificity immunoassay; details: hybridoma antibody subclones, Table 1-4
From the text: (§1) From two selected animals, spleen cells were fused to Ag8 cells to generate antibody-producing hybridomas using state-of-the-art hybridoma cell technology. After cell fusion, hybridomas were screened for specific reactivity with LNA-containing ASOs using DNA-containing ASOs for specificity evaluation.
(§2) In more detail, from two cell fusions, 3840 initial hybridoma clones resulting in 33 primary hybridoma clones were obtained. Thereof, 11 were selected for further characterization of binding characterization by biomolecular interaction analysis (kinetic and thermodynamic surface plasmon resonance). Five primary hybridoma clones were further processed by subcloning to generate monoclonal hybridoma cell culture clones.
(§3) From immunoreactive mice (2 animals selected), spleen cells were fused to Ag8 cells to generate antibody-producing fusion cells using state-of-the-art hybridoma cell technology. After cell fusion, hybridomas were screened for specific reactivity with LNA-containing ASOs using DNA-containing ASOs for specificity evaluation.
(§4) From two cell fusions, 3840 initial hybridoma clones resulting in 33 primary hybridoma clones were obtained. Thereof, 11 were selected for further characterization of binding properties by biomolecular interaction analysis (kinetic and thermodynamic surface plasmon resonance). Finally, 5 primary hybridoma clones were further processed by subcloning to generate monoclonal hybridoma cell culture clones (Tables 1-3 and 1-4).

LNA4b-Bi = assay: Hybridoma antibody specificity immunoassay; details: hybridoma antibody subclones, Table 1-4
From the text: as §1, §2, §3, §4

DNA4b-Bi = assay: Hybridoma antibody specificity immunoassay; details: hybridoma antibody subclones, Table 1-4
From the text: as §1, §2, §3, §4

DNA2-Bi = assay: Hybridoma antibody specificity immunoassay; details: hybridoma antibody subclones, Table 1-4
From the text: as §1, §2, §3, §4

LNA1-Bi = assay: Hybridoma antibody specificity immunoassay; details: hybridoma antibody subclones, Table 1-4
From the text: as §1, §2, §3, §4

LNA2-Bi = assay: Hybridoma antibody specificity immunoassay; details: hybridoma antibody subclones, Table 1-4
From the text: as §1, §2, §3, §4

[1] = tested on: LNA sequence (nucleotides/sequence of bases); assay: Epitope mapping solid phase immunoassay (ELISA); details: for Impact of LNA sequence: signal-to-noise (S/N) class
From the text: (§5) The epitope was mapped using immunoassays with capture molecules containing the following binding epitopes as well as combinations thereof: • LNA (2′-0,4-C-methylene), • phosphorothioate in the NA backbone, • nucleotides/sequence of bases, • DNA, • GalNAc-C6-modification.
(§6) The results of the epitope characterization of the antibodies according to the current invention by solid phase immunoassay (ELISA) using different biotinylated LNA, PS-backbone or DNA-containing NA-oligonucleotides as outlined above are shown in FIGS. 1 to 5.
(§7) The selected monoclonal LNA-specific Abs were further characterized for binding characteristics and epitope mapped by immunoassay using capture molecules containing the following binding epitopes and combinations thereof • LNA (2′-O.4-C-methylene) • phosphorothioate in the NA backbone • nucleotides/sequence of bases • DNA • GalNAc-C6-modification
(§8) The results of the antibody characterization by solid phase immunoassay (ELISA) using different biotinylated LNA, PS-backbone or DNA-containing NA-oligonucleotides are shown in FIGS. 1 to 5.

DNA = assay: Epitope mapping solid phase immunoassay (ELISA); details: signal-to-noise (S/N) class
From the text: as §5, §6, §7, §8

GalNAc-C6-modification = assay: Epitope mapping solid phase immunoassay (ELISA); details: signal-to-noise (S/N) class
From the text: as §5, §6, §7, §8

LNA (2′-O,4-C-methylene) = assay: Epitope mapping solid phase immunoassay (ELISA); details: signal-to-noise (S/N) class
From the text: as §5, §6, §7, §8

[2] = tested on: Phosphorothioate Backbone; assay: Epitope mapping solid phase immunoassay (ELISA); details: signal-to-noise (S/N) class
From the text: as §5, §6, §7, §8

| Molecule | Signal DNA1-Bi (DNA1-Bi) | Signal LNA4b-Bi (LNA4b-Bi) | Signal DNA4b-Bi (DNA4b-Bi) | Signal DNA2-Bi (DNA2-Bi) | Signal LNA1-Bi (LNA1-Bi) | Signal LNA2-Bi (LNA2-Bi) | LNA sequence specificity [1] | Impact of LNA sequence [1] | Reactivity to DNA (DNA) | Reactivity to GalNAc-C6-modification (GalNAc-C6-modification) | Reactivity to LNA (2′-O,4-C-methylene) (LNA (2′-O,4-C-methylene)) | Reactivity to Phosphorothioate Backbone [2] |
| --- | --- | --- | --- | --- | --- | --- | --- | --- | --- | --- | --- | --- |
| 1.9.21 (antibody, V domains shown) VH: QVQLQQSGAELVRPGTSVKVSCKASGYAFTNYLIEWIKQRPGQGLEWIGVINPGSGGTNYNEKFRVKATLTADKSSSTAYMQLSSLTSDDSAVYFCARGGGYYWGQGTLVTVSA VL: DIVMTQAAPSVPVTPGESVSISCRSSKSLLHSNGNTYLFWFLQRPGQSPQVLIYRMSNLASGVPDRFSGSGSGTAFTLRISRVEAEDVGVYYCMQHLEYPYTFGSGTRLEIK | 0.064 OD | 3.556 OD | 0.110 OD | 0.039 OD | >4.000 OD | >4.000 OD | LNA sequence specific binders | – | – | – | – | – |
| clone 1.9.21: anti-LNA monoclonal hybridoma antibody, VH SEQ ID NO: 48, VL SEQ ID NO: 57 (antibody, listed as Mus musculus, V domains shown) VH: QVQLQQSGAELVRPGTSVKVSCKASGYAFTNYLIEWIKQRPGQGLEWIGVINPGSGGTNYNEKFRVKATLTADKSSSTAYMQLSSLTSDDSAVYFCARGGGYYWGQGTLVTVSA VL: DIVMTQAAPSVPVTPGESVSISCRSSKSLLHSNGNTYLFWFLQRPGQSPQVLIYRMSNLASGVPDRFSGSGSGTAFTLRISRVEAEDVGVYYCMQHLEYPYTFGSGTRLEIK | – | – | – | – | – | – | – | +++ (+++: S/N ≥10) | − (−: S/N <2) | − (−: S/N <2) | ++ (++: S/N: 5 to 10) | +++ (+++: S/N ≥10) |
| 1.7.15 (antibody, V domains shown) VH: QVQLKQSGPSFVQPSQSLSITCTVSGFSLTTYGVHWVRQSPGKGLEWLGVIWRSGGTDYNAAFMSRLSITKDNSKSQVFFKMNSLQTDDTAIYYCTNLYYWGQGTTLTVSS VL: DIVMTQATFSNPVTLGTSVSISCRSSKSLLRSNGITYLYWYLQKPGQSPQLLIYQMSNLASGVPDRFSSSGSGTDFTLRISRVEAEDVGVYYCGQNLELPYTFGSGTKVEIK | 0.060 OD | >4.000 OD | 0.035 OD | 0.150 OD | 2.195 OD | 2.815 OD | LNA sequence specific binders | – | – | – | – | – |
| clone 1.7.15: anti-LNA monoclonal hybridoma antibody, VH SEQ ID NO: 12, VL SEQ ID NO: 21 (antibody, listed as Mus musculus, V domains shown) VH: QVQLKQSGPSFVQPSQSLSITCTVSGFSLTTYGVHWVRQSPGKGLEWLGVIWRSGGTDYNAAFMSRLSITKDNSKSQVFFKMNSLQTDDTAIYYCTNLYYWGQGTTLTVSS VL: DIVMTQATFSNPVTLGTSVSISCRSSKSLLRSNGITYLYWYLQKPGQSPQLLIYQMSNLASGVPDRFSSSGSGTDFTLRISRVEAEDVGVYYCGQNLELPYTFGSGTKVEIK | – | – | – | – | – | – | – | +++ (+++: S/N ≥10) | − (−: S/N <2) | − (−: S/N <2) | − (−: S/N <2) | +++ (+++: S/N ≥10) |
| clone 1.5.13: anti-LNA monoclonal hybridoma antibody, VH SEQ ID NO: 81, VL SEQ ID NO: 89 (antibody, listed as Mus musculus, V domains shown) VH: QVQLKESGPGLVAPSQSLSITCTISGFSLTTYGVHWVRQPPGMGLEWLVVIWGDGSTTYNSALRSRLSISKDNSRSQVFLKMNSLQTDDTAMYYCARHGGRYALDYWGQGTSVTVSS VL: DIVMTQSPATLSVTPGDRVSLSCRASQSIGGYLHWYQQKSHESPRLLIKYASQSMSGIPPRFSGSGSGSDFTLSINSVAPEDVGVYYCQAGHTFPLTFGAGTKL | – | – | – | – | – | – | – | −/+ (−/+: S/N: 2 to 3) | − (−: S/N <2) | − (−: S/N <2) | − (−: S/N <2) | +++ (+++: S/N ≥10) |
| 1.2.8 (antibody, listed as Mus musculus, V domains shown) VH: QIQLRESGPGLVAPSQSLSITCTVSGFSLTNYGVHWVRQPPGKGLEWLGVIWAGGSTIYNSALMSRLSISRDNSKSQVFLEMNSLQTYDTAMYYCARDRPFDGFFFSYWGQGTALTVSS VL: DVLMTQTPLSLPVSLGDQASISCRSSQAIVHRSGNTFLEWYLQKPGQSPKLLIYKVSNRFSGVPDRFSGSGSGTDFTLKINRVEAEDLGVYYCFQGSHVPYTFGSGTKLEIK | 0.041 OD | 1.916 OD | 0.034 OD | 0.037 OD | 2.330 OD | 2.012 OD | – | – | – | – | – | – |
| clone 1.4.10: anti-LNA monoclonal hybridoma antibody, VH SEQ ID NO: 65, VL SEQ ID NO: 73 (antibody, listed as Mus musculus, V domains shown) VH: QIQLRESGPGLVAPSQSLSITCTVSGFSLVNYGIHWVRQPPGKGLEWLGVIWAGGSTIYNSALMSRLSISRDNSKNQVFLEMNSLQTYDTAMYYCARDRPFDGFFFSYWGQGTALTVSS VL: DVLMTQTPLSLPVSLGDQASISCRSSQAIVHRSGNTFLEWYLQKPGQSPKLLIYKVSNRFSGVPDRFSGSGSGTDFTLKINRVEAEDLGVYYCFQGSHVPYTFGSGTKLEIK | – | – | – | – | – | – | – | + (+: S/N: 3 to 5) | − (−: S/N <2) | − (−: S/N <2) | − (−: S/N <2) | +++ (+++: S/N ≥10) |
| clone 1.2.8: anti-LNA monoclonal hybridoma antibody, VH SEQ ID NO: 30, VL SEQ ID NO: 39 (antibody, listed as Mus musculus, V domains shown) VH: QIQLRESGPGLVAPSQSLSITCTVSGFSLTNYGVHWVRQPPGKGLEWLGVIWAGGSTIYNSALMSRLSISRDNSKSQVFLEMNSLQTYDTAMYYCARDRPFDGFFFSYWGQGTALTVSS VL: DVLMTQTPLSLPVSLGDQASISCRSSQAIVHRSGNTFLEWYLQKPGQSPKLLIYKVSNRFSGVPDRFSGSGSGTDFTLKINRVEAEDLGVYYCFQGSHVPYTFGSGTKLEIK | – | – | – | – | – | – | – | − (−: S/N <2) | − (−: S/N <2) | − (−: S/N <2) | − (−: S/N <2) | +++ (+++: S/N ≥10) |
| 1.4.10 (antibody, listed as Mus musculus, V domains shown) VH: QIQLRESGPGLVAPSQSLSITCTVSGFSLVNYGIHWVRQPPGKGLEWLGVIWAGGSTIYNSALMSRLSISRDNSKNQVFLEMNSLQTYDTAMYYCARDRPFDGFFFSYWGQGTALTVSS VL: DVLMTQTPLSLPVSLGDQASISCRSSQAIVHRSGNTFLEWYLQKPGQSPKLLIYKVSNRFSGVPDRFSGSGSGTDFTLKINRVEAEDLGVYYCFQGSHVPYTFGSGTKLEIK | 0.084 OD | 2.977 OD | 0.038 OD | 0.049 OD | 3.398 OD | 3.154 OD | – | – | – | – | – | – |

Source: patent US20260201069A1, “ANTIBODIES THAT SPECIFICALLY BIND MODIFIED OLIGONUCLEOTIDES” (Hoffmann-La Roche Inc., priority 2024, published 2026)
